PMC2901922

How the values were obtained:
Assay in all cases: EMSA
[1] = biological target: T1, λN11 (bacteriophage λ, UniProt P03045 1-11)
T1 chain: MDAQTRRRERR

[2] = biological target: T2, λN22 (bacteriophage λ, UniProt P03045 1-22)
T2 chain: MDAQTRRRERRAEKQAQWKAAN

[3] = biological target: T3, Acr-Link2-λN22 (bacteriophage λ, UniProt P03045 1-22)
T3 chain: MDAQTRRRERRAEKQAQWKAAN

Measured: binding result

B1: λ boxB 15mer (structured_RNA)
RNA: GCCCUGAAAAAGGGC
binds: [1] | [2] | [3]
